Data on one molecule can be found in patent US20250333531A1.

The test addresses human CD37 (human) (UniProt P11049). Description: flow cytometry on Ramos cells (HEK293 supernatants), MFI normalised to chHH1-DOTA. On the technique in general: A flow cytometer gives signals particle by particle.

Sequence of human CD37 (human) (P11049 whole entry): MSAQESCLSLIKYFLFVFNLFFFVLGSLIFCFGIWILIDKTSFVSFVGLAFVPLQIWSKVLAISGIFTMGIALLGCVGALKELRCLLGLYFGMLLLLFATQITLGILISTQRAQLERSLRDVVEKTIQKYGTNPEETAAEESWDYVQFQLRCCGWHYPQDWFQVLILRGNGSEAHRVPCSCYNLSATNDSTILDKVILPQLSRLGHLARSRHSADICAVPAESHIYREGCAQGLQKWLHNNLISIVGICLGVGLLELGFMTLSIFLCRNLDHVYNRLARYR

B1: HC1 + LC1 (antibody, human IgG1, V domains shown)
VH: QVQLVQSGAEVKKPGASVKVSCKASGYSFTDYNMYWVRQAPGQRLEWMGYIDPYNGDTTYNQKFKGRVTITRDTSASTAYMELSSLRSEDTAVYYCARSPYGHYAMDYWGQGTLVTVSS
VL: DIQMTQSPSSLSASVGDRVTITCKASQDVSTAVDWYQQKPGKAPKLLIYWASTRHTGVPSRFSGSGSGTDFTLTISSLQPEDFATYYCRQHYSTPFTFGQGTKLEIK
Regarding B1, the Normalized average binding (%) worked out at 40%.
